In article PMC4930401 one finds Kd data, which are given here for one substance.

The assay concerns the target BF520.1 (human (infant BF520)). In words: BLI. For orientation: BLI is a label-free optical method that tracks binding on a fibre tip over time.

The Kd is the concentration at which binding is half-saturated. As for “BF520.W14.E3 native-like SOSIP trimer (complex)”, the Kd was found to be 8 nM.
